Source: article doi:10.1101/2021.05.21.445118

What was measured:
Experiment in all cases: SPR
[1] = biological target: human extracellular ACE2 p.Glu329Gly (human) (UniProt Q9BYF1)
[2] = biological target: human extracellular ACE2 p.Glu35Lys (human) (UniProt Q9BYF1)
[3] = biological target: human extracellular ACE2 p.Lys26Arg (human) (UniProt Q9BYF1)
[4] = biological target: human extracellular ACE2 p.Ser19Pro (human) (UniProt Q9BYF1)

Question: “SARS-CoV-2 Spike receptor binding domain (from UniProt P0DTC2) (domain or fragment)” was tested. Which ΔΔG against WT ACE2 [1] did it give?
Answer: Its ΔΔG against WT ACE2 is -0.09 kcal/mol.

Question: What about the ΔΔG against WT ACE2 [2] of the same substance?
Answer: Its ΔΔG against WT ACE2 is -0.36 kcal/mol.

Question: And the ΔΔG against WT ACE2 [3]?
Answer: Its ΔΔG against WT ACE2 is 0.26 kcal/mol.

Question: What about the ΔΔG against WT ACE2 [4] of the same substance?
Answer: Its ΔΔG against WT ACE2 is 0.59 kcal/mol.
